The supplement of paper PMC7125110
± gives the standard error. This sample holds only a part of the variants without activity.

B1: glmS ribozyme (parent)
chain: AUAAAAGCGCCAGAACUACAGAAAUGUAGUUGACGAGGAGGAGGUUUAUCGAAUUUUCGGCGGAUGCCUCCAAA

Tests used:
Settings in all cases: with glucosamine-6-phosphate
[1] = variants of: B1; assay: self-cleavage kobs at 40 uM GlcN6P; higher = faster cleavage; RNA array
In short: (§1)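 Barcoded glmS ribozyme variants on sequenced MiSeq chips were transcribed in situ by E. coli RNA polymerase and tracked through a hybridised Cy3 probe at 37 °C. Glucosamine-6-phosphate (40 μM to 10 mM) in HEPES/KCl/Mg(OAc)2 buffer was flowed in, and tiles were imaged over ~14 h. Signals were normalised to baseline and to non-cleaving reference variants; per-tile medians were fit to one- or two-exponential decays to give kobs. kcat and KM came from weighted Michaelis–Menten fits across concentrations.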

[2] = variants of: B1; assay: self-cleavage kobs at 2500 uM GlcN6P; higher = faster cleavage; RNA array
In short: as §1

[3] = variants of: B1; assay: self-cleavage kobs at 10000 uM GlcN6P; higher = faster cleavage; RNA array
In short: as §1

[4] = variants of: B1; assay: self-cleavage kobs at 160 uM GlcN6P; higher = faster cleavage; RNA array
In short: as §1

[5] = variants of: B1; assay: self-cleavage kobs at 640 uM GlcN6P; higher = faster cleavage; RNA array
In short: as §1

Variant	self-cleavage kobs at 40 uM GlcN6P [1]	self-cleavage kobs at 2500 uM GlcN6P [2]	self-cleavage kobs at 10000 uM GlcN6P [3]	self-cleavage kobs at 160 uM GlcN6P [4]	self-cleavage kobs at 640 uM GlcN6P [5]
G9A U47C G51U G63A	< 1e-05 s⁻¹	< 1e-05 s⁻¹	< 1e-05 s⁻¹	–	–
A48G U49C	< 1e-05 s⁻¹	< 1e-05 s⁻¹	< 1e-05 s⁻¹	< 1e-05 s⁻¹	< 1e-05 s⁻¹
C8U U57G	< 1e-05 s⁻¹	< 1e-05 s⁻¹	–	–	–
A15G C50A A64G	< 1e-05 s⁻¹	–	–	–	–
A14U U55G C58U G66U C67G	0.00272 ± 0.001 s⁻¹	–	–	–	–
A15U A52C G59A C70A	< 1e-05 s⁻¹	–	–	–	–
A36C G41A	< 1e-05 s⁻¹	< 1e-05 s⁻¹	< 1e-05 s⁻¹	< 1e-05 s⁻¹	< 1e-05 s⁻¹
C10G U69A	< 1e-05 s⁻¹	–	–	–	–
G44A A64C	< 1e-05 s⁻¹	< 1e-05 s⁻¹	< 1e-05 s⁻¹	–	< 1e-05 s⁻¹
G60U U65A	< 1e-05 s⁻¹	< 1e-05 s⁻¹	< 1e-05 s⁻¹	< 1e-05 s⁻¹	< 1e-05 s⁻¹
G51A U57G	< 1e-05 s⁻¹	< 1e-05 s⁻¹	–	< 1e-05 s⁻¹	–
A53C G62U	< 1e-05 s⁻¹	< 1e-05 s⁻¹	< 1e-05 s⁻¹	< 1e-05 s⁻¹	–
A42G U56A G60U	< 1e-05 s⁻¹	< 1e-05 s⁻¹	< 1e-05 s⁻¹	–	–
U49C G62C	< 1e-05 s⁻¹	< 1e-05 s⁻¹	–	–	< 1e-05 s⁻¹
C8G G51U A64G	< 1e-05 s⁻¹	–	< 1e-05 s⁻¹	–	–
G29C G41U U46C G62U	< 1e-05 s⁻¹	–	< 1e-05 s⁻¹	–	–
A15G C16U A52U U57A G59U	< 1e-05 s⁻¹	–	< 1e-05 s⁻¹	< 1e-05 s⁻¹	–
A12G C58U	< 1e-05 s⁻¹	1.67e-05 ± 7.9e-06 s⁻¹	6.35e-05 ± 8.1e-06 s⁻¹	–	–
A14G C34U C68G	0.000349 ± 0.00016 s⁻¹	–	5.07e-05 ± 2e-05 s⁻¹	–	–
C10A C11U U69G	4.43e-05 ± 2.1e-05 s⁻¹	–	5.88e-05 ± 1.5e-05 s⁻¹	–	–
A33C C34G C71U	< 1e-05 s⁻¹	< 1e-05 s⁻¹	–	–	–
U30C G38C	< 1e-05 s⁻¹	< 1e-05 s⁻¹	–	–	< 1e-05 s⁻¹
G32C A36G C61U U69A	< 1e-05 s⁻¹	–	–	–	–

Variant	self-cleavage kobs at 40 uM GlcN6P [1]	self-cleavage kobs at 2500 uM GlcN6P [2]	self-cleavage kobs at 10000 uM GlcN6P [3]	self-cleavage kobs at 160 uM GlcN6P [4]	self-cleavage kobs at 640 uM GlcN6P [5]
U55A G60C	< 1e-05 s⁻¹	–	–	–	< 1e-05 s⁻¹
G37U G38A A42C	< 1e-05 s⁻¹	< 1e-05 s⁻¹	< 1e-05 s⁻¹	–	< 1e-05 s⁻¹
A15C G66A	8.43e-05 ± 1.9e-05 s⁻¹	0.00264 ± 0.00049 s⁻¹	0.00503 ± 0.0012 s⁻¹	0.000372 ± 0.00011 s⁻¹	0.000599 ± 0.00014 s⁻¹
C10U G13A C67A	< 1e-05 s⁻¹	–	< 1e-05 s⁻¹	–	< 1e-05 s⁻¹
G7A G60A	< 1e-05 s⁻¹	–	< 1e-05 s⁻¹	< 1e-05 s⁻¹	< 1e-05 s⁻¹
G43U G59A	< 1e-05 s⁻¹	< 1e-05 s⁻¹	< 1e-05 s⁻¹	–	–
A12U G62C	< 1e-05 s⁻¹	< 1e-05 s⁻¹	< 1e-05 s⁻¹	< 1e-05 s⁻¹	< 1e-05 s⁻¹
A33U G43A	< 1e-05 s⁻¹	< 1e-05 s⁻¹	< 1e-05 s⁻¹	< 1e-05 s⁻¹	< 1e-05 s⁻¹
G9U A14C A52C	< 1e-05 s⁻¹	< 1e-05 s⁻¹	< 1e-05 s⁻¹	–	–
G51A U65G	< 1e-05 s⁻¹	–	< 1e-05 s⁻¹	< 1e-05 s⁻¹	–
G9U G32U G41U A53C	< 1e-05 s⁻¹	–	< 1e-05 s⁻¹	–	–
A14G A15U G37A	4.55e-05 ± 1.5e-05 s⁻¹	–	0.00249 ± 0.00037 s⁻¹	–	–
G60U C70G	< 1e-05 s⁻¹	–	< 1e-05 s⁻¹	–	–
A42U A48G	< 1e-05 s⁻¹	–	–	< 1e-05 s⁻¹	< 1e-05 s⁻¹
A12G C16G A53U C71A	< 1e-05 s⁻¹	–	–	–	–
U55A C67G	0.000126 ± 3.4e-05 s⁻¹	0.00013 ± 2e-05 s⁻¹	0.00061 ± 0.00014 s⁻¹	0.000104 ± 2.1e-05 s⁻¹	0.000179 ± 2.8e-05 s⁻¹
U31G G35U	< 1e-05 s⁻¹	< 1e-05 s⁻¹	< 1e-05 s⁻¹	< 1e-05 s⁻¹	< 1e-05 s⁻¹
C16A C34A	< 1e-05 s⁻¹	< 1e-05 s⁻¹	< 1e-05 s⁻¹	< 1e-05 s⁻¹	< 1e-05 s⁻¹
C16A C34U	< 1e-05 s⁻¹	< 1e-05 s⁻¹	–	< 1e-05 s⁻¹	< 1e-05 s⁻¹
U49A G51A U57A C58G	< 1e-05 s⁻¹	–	< 1e-05 s⁻¹	–	–
A48C G51A	< 1e-05 s⁻¹	< 1e-05 s⁻¹	< 1e-05 s⁻¹	< 1e-05 s⁻¹	< 1e-05 s⁻¹
C8A U56A	< 1e-05 s⁻¹	< 1e-05 s⁻¹	< 1e-05 s⁻¹	< 1e-05 s⁻¹	< 1e-05 s⁻¹
A39G G40C C67U	< 1e-05 s⁻¹	< 1e-05 s⁻¹	< 1e-05 s⁻¹	–	–

Variant	self-cleavage kobs at 40 uM GlcN6P [1]	self-cleavage kobs at 2500 uM GlcN6P [2]	self-cleavage kobs at 10000 uM GlcN6P [3]	self-cleavage kobs at 160 uM GlcN6P [4]	self-cleavage kobs at 640 uM GlcN6P [5]
C58U G60A	< 1e-05 s⁻¹	< 1e-05 s⁻¹	< 1e-05 s⁻¹	–	< 1e-05 s⁻¹
G38U U57G C67U C70U	8e-05 ± 2.6e-05 s⁻¹	0.0013 ± 0.00059 s⁻¹	4.29e-05 ± 1.9e-05 s⁻¹	–	0.000114 ± 4.7e-05 s⁻¹
C34G U47G C68G	0.000102 ± 2.7e-05 s⁻¹	7.01e-05 ± 2.4e-05 s⁻¹	7.34e-05 ± 1.5e-05 s⁻¹	0.000631 ± 0.00031 s⁻¹	8.76e-05 ± 2.5e-05 s⁻¹
G37A U49A	< 1e-05 s⁻¹	< 1e-05 s⁻¹	–	–	< 1e-05 s⁻¹
U31C C50G C70U	7.5e-05 ± 2.8e-05 s⁻¹	4.19e-05 ± 1.2e-05 s⁻¹	4.29e-05 ± 1.3e-05 s⁻¹	7.9e-05 ± 1.5e-05 s⁻¹	7.86e-05 ± 1.6e-05 s⁻¹
A12G A33G U57G	< 1e-05 s⁻¹	–	–	–	–
G44U A52G A53U	< 1e-05 s⁻¹	–	< 1e-05 s⁻¹	–	–
G40U G62C	< 1e-05 s⁻¹	–	< 1e-05 s⁻¹	< 1e-05 s⁻¹	< 1e-05 s⁻¹
G29C A42C	< 1e-05 s⁻¹	< 1e-05 s⁻¹	< 1e-05 s⁻¹	–	< 1e-05 s⁻¹
A6G U31A G44U C67G	< 1e-05 s⁻¹	–	–	–	< 1e-05 s⁻¹
A6G G7C C16A G41U	< 1e-05 s⁻¹	–	–	–	–
G35U A53U C61G C68G	0.000579 ± 0.00022 s⁻¹	–	0.000516 ± 0.0002 s⁻¹	–	–
U45G U57C	< 1e-05 s⁻¹	3.94e-05 ± 1.4e-05 s⁻¹	7.89e-05 ± 9.7e-06 s⁻¹	< 1e-05 s⁻¹	–
A52G C61U	< 1e-05 s⁻¹	< 1e-05 s⁻¹	–	< 1e-05 s⁻¹	–
C50G C58G G66U C68A	6.12e-05 ± 1.5e-05 s⁻¹	0.000368 ± 6.5e-05 s⁻¹	0.00013 ± 2e-05 s⁻¹	0.000177 ± 4e-05 s⁻¹	0.000228 ± 8e-05 s⁻¹
G41C C61U	< 1e-05 s⁻¹	< 1e-05 s⁻¹	< 1e-05 s⁻¹	< 1e-05 s⁻¹	< 1e-05 s⁻¹
G13U C50A	< 1e-05 s⁻¹	–	–	–	–
A48C A64G	< 1e-05 s⁻¹	–	6.31e-05 ± 1.3e-05 s⁻¹	< 1e-05 s⁻¹	–
C8G U31C A39G	< 1e-05 s⁻¹	–	–	–	–
A39C G40C U47A U56G	< 1e-05 s⁻¹	–	–	–	–
C8U U30G A36G C68U	< 1e-05 s⁻¹	–	–	< 1e-05 s⁻¹	–
C16U A33U C50G A64U U69A	0.000139 ± 2.3e-05 s⁻¹	–	0.000172 ± 3.4e-05 s⁻¹	–	–
G9U C58A	< 1e-05 s⁻¹	–	< 1e-05 s⁻¹	–	–

Variant	self-cleavage kobs at 40 uM GlcN6P [1]	self-cleavage kobs at 2500 uM GlcN6P [2]	self-cleavage kobs at 10000 uM GlcN6P [3]	self-cleavage kobs at 160 uM GlcN6P [4]	self-cleavage kobs at 640 uM GlcN6P [5]
A14C G29U C50G	0.000119 ± 3.7e-05 s⁻¹	–	–	–	–
G62C C67G	< 1e-05 s⁻¹	< 1e-05 s⁻¹	< 1e-05 s⁻¹	–	< 1e-05 s⁻¹
A36C G37A	< 1e-05 s⁻¹	–	< 1e-05 s⁻¹	–	–
A15U U30C G51C	< 1e-05 s⁻¹	–	–	–	–
C8A G62C	< 1e-05 s⁻¹	< 1e-05 s⁻¹	< 1e-05 s⁻¹	–	< 1e-05 s⁻¹
A6G G7C	< 1e-05 s⁻¹	< 1e-05 s⁻¹	< 1e-05 s⁻¹	< 1e-05 s⁻¹	–
A6G A14U U31A U57G	< 1e-05 s⁻¹	–	< 1e-05 s⁻¹	< 1e-05 s⁻¹	< 1e-05 s⁻¹
A36G G62C C67U	< 1e-05 s⁻¹	–	< 1e-05 s⁻¹	–	–
A12U U30G U56G	0.000609 ± 0.00013 s⁻¹	–	0.0339 ± 0.0098 s⁻¹	–	–
A12U A36U C50A U69G	9.31e-05 ± 2.3e-05 s⁻¹	0.000241 ± 5.7e-05 s⁻¹	6.54e-05 ± 1.6e-05 s⁻¹	–	–
A15U G38U U55C	< 1e-05 s⁻¹	–	–	–	–
A48C G59U C67A	< 1e-05 s⁻¹	–	–	–	–
C11U A33C A53U U57G G60U	< 1e-05 s⁻¹	–	< 1e-05 s⁻¹	–	–
G41A C58G	< 1e-05 s⁻¹	< 1e-05 s⁻¹	< 1e-05 s⁻¹	< 1e-05 s⁻¹	< 1e-05 s⁻¹
A33U G59U G62A	< 1e-05 s⁻¹	–	–	–	–
A6U G29A G63U	< 1e-05 s⁻¹	–	–	–	–
C11U G60C	< 1e-05 s⁻¹	–	< 1e-05 s⁻¹	< 1e-05 s⁻¹	–
C50A A64G C71U	< 1e-05 s⁻¹	–	–	–	–
A12G C16A U30G A36G	< 1e-05 s⁻¹	–	–	–	–
A39U C70U	0.000786 ± 6.4e-05 s⁻¹	0.0108 ± 0.0033 s⁻¹	0.0395 ± 0.0076 s⁻¹	0.00158 ± 0.00038 s⁻¹	0.00436 ± 0.00059 s⁻¹
G41A G59A	< 1e-05 s⁻¹	–	–	< 1e-05 s⁻¹	–
C11U G29U A39U A64U	< 1e-05 s⁻¹	–	–	–	–
